Reference: US20160368985A1 (published 2016)
Values belong to the binder of their own block, whether it stands above or below them.

Legend:
[1] = target: T1, cynomolgus E11 protein (E11 domain of cynomolgus FcRH5), soluble (cynomolgus monkey); assay: SPR BIACORE T200, IgG capture, monovalent
T1 chain: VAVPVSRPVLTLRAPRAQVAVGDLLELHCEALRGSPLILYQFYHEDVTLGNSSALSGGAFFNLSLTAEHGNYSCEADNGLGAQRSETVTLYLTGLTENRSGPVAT

[2] = target: T2, human E11 protein (E11 domain of human FcRH5), soluble (human, UniProt Q96RD9 745-850); assay: SPR BIACORE T200, IgG capture, monovalent
T2 construct: Expressed in CHO cells; also called human E11 domain
T2 sequence: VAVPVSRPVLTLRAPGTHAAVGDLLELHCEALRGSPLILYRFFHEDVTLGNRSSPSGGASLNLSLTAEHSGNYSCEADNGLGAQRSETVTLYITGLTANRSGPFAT

Kd [1]: 27 nM | Kd [2]: 68 nM
B1: 17B1 (antibody, mouse IgG2a, V domains shown)
VH: QVQLQQSGPELVRPGVSVKISCKGSGYTFTHYAMHWVKQSHTKSLEWIGMISSSSGNTNFNQKFMDKATMTVDKSSTTAYLELARLTFGDSAIYYCARWSYYALFDYWGQGTTVTVSS
VL: ENVLTQSPAIMSASPGEKVTMTCSADSSVDYIHWYQQKSNTSPKLWIYDTSKLASGVPGRFSGSGSGNSYSLTISSMEAEDFATYYCFQGSGYPLTFGSGTKLELK
notes: Mouse mAb, Immunization Campaign C; expressed recombinantly as murine IgG2a for SPR

Kd [1]: 9.1 nM | Kd [2]: 0.5 nM
B2: 15G8 (antibody, mouse IgG2a, V domains shown)
VH: EVQLQQSGPELVKPGASVKMSCKASGYTFTNYVIHWMKQKPGQGLEWIGYISPYNDYTKYNEKFEGKATLTSDKSSNTAYMELSSLTSEDSAVYYCARRDYYGSSDYWGQGTTLTVSS
VL: QIVLTQSPAIMSASPGEKVTMTCSASSSVDYMHWYQQKSGTSPKKWIYDTSKLASGVPARFSGSGSGTSYSLTIGSMEAEDAATYYCQQWSSNPPTFGGGTKLEIK
notes: Mouse mAb, Immunization Campaign C; expressed recombinantly as murine IgG2a for SPR; also called mAb 15G8
